Experimental data as given in publication PMC10771490, “The structure of a tetrameric septin complex reveals a hydrophobic element essential for NC-interface integrity” (Communications Biology, 2024).

T1: Cdc3_(Q81-A410) (Saccharomyces cerevisiae, UniProt P32457 81-410)
T1 construct: Cdc3, septin of Saccharomyces cerevisiae, residues Q81-A410 (extensions removed); source: E. coli BL21DE3, coexpressed with the other subunits, purified (HisTrap IMAC, anion exchange, SEC)
T1 sequence (looked up): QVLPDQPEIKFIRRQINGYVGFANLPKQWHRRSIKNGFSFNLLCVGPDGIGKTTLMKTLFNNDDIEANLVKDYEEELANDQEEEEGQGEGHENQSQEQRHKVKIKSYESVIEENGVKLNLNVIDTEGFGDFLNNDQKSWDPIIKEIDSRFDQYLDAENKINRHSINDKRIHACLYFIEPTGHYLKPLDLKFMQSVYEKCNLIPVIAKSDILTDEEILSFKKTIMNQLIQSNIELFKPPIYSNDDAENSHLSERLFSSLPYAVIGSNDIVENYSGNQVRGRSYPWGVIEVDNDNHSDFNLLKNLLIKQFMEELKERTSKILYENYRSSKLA

T2: Shs1_(G21-S339) (Saccharomyces cerevisiae, UniProt Q07657 21-339)
T2 construct: Shs1, septin of Saccharomyces cerevisiae, residues G21-S339 (unstructured extensions removed); The complex was purified on a HisTrap column; source: E. coli BL21DE3, coexpressed with the other subunits, purified (HisTrap IMAC, anion exchange, SEC)
T2 sequence (looked up): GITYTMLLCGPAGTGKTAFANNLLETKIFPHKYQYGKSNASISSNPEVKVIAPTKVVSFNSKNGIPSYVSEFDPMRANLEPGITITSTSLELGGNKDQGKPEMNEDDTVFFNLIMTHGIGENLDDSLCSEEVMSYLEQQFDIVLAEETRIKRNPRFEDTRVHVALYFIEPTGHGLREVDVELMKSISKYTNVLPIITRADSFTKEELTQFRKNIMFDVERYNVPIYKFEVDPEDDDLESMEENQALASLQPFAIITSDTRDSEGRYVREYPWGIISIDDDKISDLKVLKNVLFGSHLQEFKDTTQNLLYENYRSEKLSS


Key:
[1] = molecular target: the molecule itself; test: SEC; analytical SEC of yeast septin complexes purified by IMAC and IEX; Superose 6, 25 mM Tris pH 8.0, 300 mM NaCl; elution compared with tetramer and octamer references
[2] = molecular target: the molecule itself; test: cross-linking; engineered cysteine pairs across the Cdc10-Cdc10 NC-interface; complexes expressed in E. coli T7-SHuffle Express, purified by IMAC in non-reducing buffers, SDS-PAGE with and without β-Mercaptoethanol, Western blot against the S-tag on Cdc10
Cdc3_(Q81-A410) [3] = molecular target: T1, Cdc3_(Q81-A410); test: SEC; analytical SEC of yeast septin complexes purified by IMAC and IEX; Superose 6, 25 mM Tris pH 8.0, 300 mM NaCl; elution compared with tetramer and octamer references; settings: both partners purified
Cdc3_(Q81-A410) [4] = molecular target: T1, Cdc3_(Q81-A410); test: crystal structure; coexpressed tetrameric complex loaded with GTP before crystallization; sitting-drop vapor diffusion, 20% PEG 5000, 300 mM ammoniumsulfate, 100 mM Bis-Tris pH 6.5, 20 °C; 3.24 Å, space group C 1 2 1, a tetramer in the asymmetric unit; settings: both partners purified
Shs1_(G21-S339) = molecular target: T2, Shs1_(G21-S339); test: as above; settings: both partners purified

Row | Binder | binding result [1] | binding result [2] | also measured
1 | Cdc10_(L27A) (natural protein, Saccharomyces cerevisiae, UniProt P25342 1-322, looked up, Cdc10, septin of Saccharomyces cerevisiae, hydrophobic crest mutant (position 15 of the motif); Compared with the wildtype octamer; source: E. coli BL21DE3, co-expressed as septin complex, purified (IMAC, IEX)) MDPLSSVQPASYVGFDTITNQIEHRLAKKGFQFNIMVVGQSGLGKSTLINTLFASHLIDSATGDDISALPVTKTTEMKISTHTLVEDRVRLNINVIDTPGFGDFIDNSKAWEPIVKYIKEQHSQYLRKELTAQRERFITDTRVHAILYFLQPNGKELSRLDVEALKRLTEIANVIPVIGKSDTLTLDERTEFRELIQNEFEKYNFKIYPYDSEELTDEELELNRSVRSIIPFAVVGSENEIEINGETFRGRKTRWSAINVEDINQCDFVYLREFLIRTHLQDLIETTSYIHYEGFRARQLIALKENANSRSSAHMSSNAIQR | binds |  | 
2 | Cdc10 Q21C/Q281C (disulfide bridge mutant) (natural protein, Saccharomyces cerevisiae, UniProt P25342 1-322, looked up, source: E. coli T7-SHuffle Express, co-expressed with the other full-length subunits, purified (IMAC, non-reducing buffers)) MDPLSSVQPASYVGFDTITNCIEHRLLKKGFQFNIMVVGQSGLGKSTLINTLFASHLIDSATGDDISALPVTKTTEMKISTHTLVEDRVRLNINVIDTPGFGDFIDNSKAWEPIVKYIKEQHSQYLRKELTAQRERFITDTRVHAILYFLQPNGKELSRLDVEALKRLTEIANVIPVIGKSDTLTLDERTEFRELIQNEFEKYNFKIYPYDSEELTDEELELNRSVRSIIPFAVVGSENEIEINGETFRGRKTRWSAINVEDINQCDFVYLREFLIRTHLCDLIETTSYIHYEGFRARQLIALKENANSRSSAHMSSNAIQR |  | binds | 
3 | Cdc10 L26A in the disulfide bridge mutant A132C/L300C (natural protein, Saccharomyces cerevisiae, UniProt P25342 1-322, looked up, Cdc10, septin of Saccharomyces cerevisiae, disulfide bridge mutant A132C/L300C with L26A; also called L26A (disulfide mutant); source: E. coli T7-SHuffle Express, co-expressed with the other full-length subunits, purified (IMAC, non-reducing buffers)) MDPLSSVQPASYVGFDTITNQIEHRALKKGFQFNIMVVGQSGLGKSTLINTLFASHLIDSATGDDISALPVTKTTEMKISTHTLVEDRVRLNINVIDTPGFGDFIDNSKAWEPIVKYIKEQHSQYLRKELTCQRERFITDTRVHAILYFLQPNGKELSRLDVEALKRLTEIANVIPVIGKSDTLTLDERTEFRELIQNEFEKYNFKIYPYDSEELTDEELELNRSVRSIIPFAVVGSENEIEINGETFRGRKTRWSAINVEDINQCDFVYLREFLIRTHLQDLIETTSYIHYEGFRARQCIALKENANSRSSAHMSSNAIQR |  | binds | 
4 | Cdc10 T19C/E23C (disulfide bridge mutant) (natural protein, Saccharomyces cerevisiae, UniProt P25342 1-322, looked up, Cdc10, septin of Saccharomyces cerevisiae, native, non-truncated, with two cysteines for a disulfide between the two α0-helices; also called T19C and E23C; source: E. coli T7-SHuffle Express, co-expressed with the other full-length subunits, purified (IMAC, non-reducing buffers)) MDPLSSVQPASYVGFDTICNQICHRLLKKGFQFNIMVVGQSGLGKSTLINTLFASHLIDSATGDDISALPVTKTTEMKISTHTLVEDRVRLNINVIDTPGFGDFIDNSKAWEPIVKYIKEQHSQYLRKELTAQRERFITDTRVHAILYFLQPNGKELSRLDVEALKRLTEIANVIPVIGKSDTLTLDERTEFRELIQNEFEKYNFKIYPYDSEELTDEELELNRSVRSIIPFAVVGSENEIEINGETFRGRKTRWSAINVEDINQCDFVYLREFLIRTHLQDLIETTSYIHYEGFRARQLIALKENANSRSSAHMSSNAIQR |  | binds | 
5 | Cdc10 L27A in the disulfide bridge mutant A132C/L300C (natural protein, Saccharomyces cerevisiae, UniProt P25342 1-322, looked up, Cdc10, septin of Saccharomyces cerevisiae, disulfide bridge mutant A132C/L300C with L27A; also called L27A (disulfide mutant); source: E. coli T7-SHuffle Express, co-expressed with the other full-length subunits, purified (IMAC, non-reducing buffers)) MDPLSSVQPASYVGFDTITNQIEHRLAKKGFQFNIMVVGQSGLGKSTLINTLFASHLIDSATGDDISALPVTKTTEMKISTHTLVEDRVRLNINVIDTPGFGDFIDNSKAWEPIVKYIKEQHSQYLRKELTCQRERFITDTRVHAILYFLQPNGKELSRLDVEALKRLTEIANVIPVIGKSDTLTLDERTEFRELIQNEFEKYNFKIYPYDSEELTDEELELNRSVRSIIPFAVVGSENEIEINGETFRGRKTRWSAINVEDINQCDFVYLREFLIRTHLQDLIETTSYIHYEGFRARQCIALKENANSRSSAHMSSNAIQR |  | binds | 
6 | Cdc10_(M1-R322) (natural protein, Saccharomyces cerevisiae, UniProt P25342 1-322, looked up, Cdc10, septin of Saccharomyces cerevisiae, residues M1-R322; kept apart from m6 because it stood with truncated partner subunits; also called Cdc10 with the α0-helix added, in the otherwise truncated complex; source: E. coli BL21DE3, coexpressed with Shs1_(G21-S339), Cdc12_(M1-G314) and Cdc3_(Q81-A410), purified (IMAC, IEX)) MDPLSSVQPASYVGFDTITNQIEHRLLKKGFQFNIMVVGQSGLGKSTLINTLFASHLIDSATGDDISALPVTKTTEMKISTHTLVEDRVRLNINVIDTPGFGDFIDNSKAWEPIVKYIKEQHSQYLRKELTAQRERFITDTRVHAILYFLQPNGKELSRLDVEALKRLTEIANVIPVIGKSDTLTLDERTEFRELIQNEFEKYNFKIYPYDSEELTDEELELNRSVRSIIPFAVVGSENEIEINGETFRGRKTRWSAINVEDINQCDFVYLREFLIRTHLQDLIETTSYIHYEGFRARQLIALKENANSRSSAHMSSNAIQR | binds |  | binding result (Cdc3_(Q81-A410) [3]): binds
7 | Cdc10 L26A (natural protein, Saccharomyces cerevisiae, UniProt P25342 1-322, looked up, Cdc10, septin of Saccharomyces cerevisiae, mutant of the non-conserved position 14 of the hydrophobic crest motif; Compared with the wildtype octamer; source: E. coli BL21DE3, co-expressed as septin complex, purified (IMAC, IEX)) MDPLSSVQPASYVGFDTITNQIEHRALKKGFQFNIMVVGQSGLGKSTLINTLFASHLIDSATGDDISALPVTKTTEMKISTHTLVEDRVRLNINVIDTPGFGDFIDNSKAWEPIVKYIKEQHSQYLRKELTAQRERFITDTRVHAILYFLQPNGKELSRLDVEALKRLTEIANVIPVIGKSDTLTLDERTEFRELIQNEFEKYNFKIYPYDSEELTDEELELNRSVRSIIPFAVVGSENEIEINGETFRGRKTRWSAINVEDINQCDFVYLREFLIRTHLQDLIETTSYIHYEGFRARQLIALKENANSRSSAHMSSNAIQR | binds |  | 
8 | Cdc10, native, non-truncated (wild type) (natural protein, Saccharomyces cerevisiae, UniProt P25342 1-322, looked up, Cdc10, septin of Saccharomyces cerevisiae, native, non-truncated; An S-tag is named on Cdc10 only for the Western blots of the disulfide mutants; also called Cdc10 of the untruncated octamer; source: E. coli BL21DE3, co-expressed with the other full-length subunits, purified (IMAC, IEX)) MDPLSSVQPASYVGFDTITNQIEHRLLKKGFQFNIMVVGQSGLGKSTLINTLFASHLIDSATGDDISALPVTKTTEMKISTHTLVEDRVRLNINVIDTPGFGDFIDNSKAWEPIVKYIKEQHSQYLRKELTAQRERFITDTRVHAILYFLQPNGKELSRLDVEALKRLTEIANVIPVIGKSDTLTLDERTEFRELIQNEFEKYNFKIYPYDSEELTDEELELNRSVRSIIPFAVVGSENEIEINGETFRGRKTRWSAINVEDINQCDFVYLREFLIRTHLQDLIETTSYIHYEGFRARQLIALKENANSRSSAHMSSNAIQR | binds |  | 
9 | Cdc10 A132C/L300C (disulfide bridge mutant) (natural protein, Saccharomyces cerevisiae, UniProt P25342 1-322, looked up, also called Cdc10^A_(A132)-Cdc10^B_(L300); source: E. coli T7-SHuffle Express, co-expressed with the other full-length subunits, purified (IMAC, non-reducing buffers)) MDPLSSVQPASYVGFDTITNQIEHRLLKKGFQFNIMVVGQSGLGKSTLINTLFASHLIDSATGDDISALPVTKTTEMKISTHTLVEDRVRLNINVIDTPGFGDFIDNSKAWEPIVKYIKEQHSQYLRKELTCQRERFITDTRVHAILYFLQPNGKELSRLDVEALKRLTEIANVIPVIGKSDTLTLDERTEFRELIQNEFEKYNFKIYPYDSEELTDEELELNRSVRSIIPFAVVGSENEIEINGETFRGRKTRWSAINVEDINQCDFVYLREFLIRTHLQDLIETTSYIHYEGFRARQCIALKENANSRSSAHMSSNAIQR |  | binds | 
10 | Cdc10_(G30-R322) (domain or fragment, Saccharomyces cerevisiae, UniProt P25342 30-322, looked up, Cdc10, septin of Saccharomyces cerevisiae, residues G30-R322 (lacks the α0-helix); also called Cdc10 lacking the α0-helix; Cdc10 of the truncated tetramer; source: E. coli BL21DE3, coexpressed with the other subunits, purified (HisTrap IMAC, anion exchange, SEC)) GFQFNIMVVGQSGLGKSTLINTLFASHLIDSATGDDISALPVTKTTEMKISTHTLVEDRVRLNINVIDTPGFGDFIDNSKAWEPIVKYIKEQHSQYLRKELTAQRERFITDTRVHAILYFLQPNGKELSRLDVEALKRLTEIANVIPVIGKSDTLTLDERTEFRELIQNEFEKYNFKIYPYDSEELTDEELELNRSVRSIIPFAVVGSENEIEINGETFRGRKTRWSAINVEDINQCDFVYLREFLIRTHLQDLIETTSYIHYEGFRARQLIALKENANSRSSAHMSSNAIQR |  |  | binding result (Cdc3_(Q81-A410) [4]): binds
11 | Cdc12_(M1-G314) (domain or fragment, Saccharomyces cerevisiae, UniProt P32468 1-314, looked up, Cdc12, septin of Saccharomyces cerevisiae, residues M1-G314 (C-terminal extension removed); source: E. coli BL21DE3, coexpressed with the other subunits, purified (HisTrap IMAC, anion exchange, SEC)) MSAATATAAPVPPPVGISNLPNQRYKIVNEEGGTFTVMLCGESGLGKTTFINTLFQTVLKRADGQQHRQEPIRKTVEIDITRALLEEKHFELRVNVIDTPGFGDNVNNNKAWQPLVDFIDDQHDSYMRQEQQPYRTKKFDLRVHAVLYFIRPTGHGLKPIDIETMKRLSTRANLIPVIAKADTLTAQELQQFKSRIRQVIEAQEIRIFTPPLDADSKEDAKSGSNPDSAAVEHARQLIEAMPFAIVGSEKKFDNGQGTQVVARKYPWGLVEIENDSHCDFRKLRALLLRTYLLDLISTTQEMHYETYRRLRLEG |  |  | binding result (Shs1_(G21-S339)): binds; binding result (Cdc3_(Q81-A410) [4]): binds
